Results: article PMC5722371
Where “and” joins values, the source holds several entries; their conditions need not be identical. Equal values may be shown once. Read-outs that look alike come from different tables or passages of the source.

Assays:
[1] = molecular target: Neisseria meningitides DMP19 (DNA mimic protein 19 kDa), tag free (Neisseria meningitides); assay: ITC; ITC200, 300 μM HU-His6 dimer in the syringe into 30 μM DMP19 monomer in the cell, 20 mM Tris pH 7.4, 50 mM NaCl, 25°C, 20 injections of 2 μl
[2] = molecular target: Neisseria meningitides DMP19 (DNA mimic protein 19 kDa), tag free (Neisseria meningitides); assay: as above; remark: listed apart in the source
[3] = molecular target: C-terminal His6-tagged Neisseria HU (not stated (Neisseria)); assay: SEC; Superose 12, 20 mM Tris pH 7.4, 100 mM NaCl; 750 μM HU-His6 or 1500 μM tag-free DMP19 alone, or both together; MW from Kav against four standards
[4] = molecular target: Neisseria meningitides DMP19 (DNA mimic protein 19 kDa), tag free (Neisseria meningitides); assay: as above
[5] = molecular target: HU (Haemophilus influenzae) (UniProt P43722); assay: ITC; details: cited from earlier work

In the case of “C-terminal His6-tagged Neisseria HU (natural protein)”, the Kd [1] is reported as 0.38 µM and 0.49 µM and 0.64 µM, the Kd [2] is reported as 0.5 µM and the stoichiometry N [3] is reported as 2.
For “Neisseria meningitides DMP19 (DNA mimic protein 19 kDa), tag free (natural protein)”, the stoichiometry N [4] was 2.
In the case of HI1450 (from UniProt P44199), the Kd [5] is given as 3 µM.
